Data from article PMC11656743.
Several values for one entry are separate records, joined by “and”; a condition that tells them apart may be missing. Equal entries are not always repeated.

What was measured:
[1] = biological target: MoaB2 with C-terminal His-tag, for crystallography (strain LK2615) (M. smegmatis); experiment: crystal structure; X-ray, 2.53 Å; crystals from 0.2 M calcium chloride, 14% PEG 400, 0.1 M sodium-HEPES pH 7.5
[2] = biological target: MoaB2 with C-terminal His-tag, for crystallography (strain LK2615) (M. smegmatis); experiment: dynamic light scattering; 5 mg/mL MoaB2 in 20 mM Tris-HCl pH 8.0, 50 mM NaCl, 3 mM NaN3, 25°C
[3] = biological target: MoaB2, recombinant, tag cleaved (strain LK2936) (M. smegmatis) (UniProt A0R3I5); experiment: SEC; Superdex 200 Increase 10/300, 25 mM Tris-HCl pH 7.5, 50 mM NaCl, 1 mM DTT, 15°C; fractions on SDS-PAGE
[4] = biological target: σ^A, recombinant, tag cleaved (strain LK2832) (M. smegmatis) (UniProt A0QW02); experiment: AUC; multi-signal sedimentation velocity (absorbance 280 nm and interference) at σ^A:MoaB2 molar ratio 1:0.3
[5] = biological target: MoaB2, recombinant, tag cleaved (strain LK2936) (M. smegmatis) (UniProt A0R3I5); experiment: AUC; sedimentation velocity, 20°C, 50 mM HEPES pH 7.5, 100 mM NaCl, 0.5 mM TCEP, 3 mM NaN3; σ^A 19.4 µM, MoaB2 77.6 µM, σ^A:MoaB2 mixtures 1:0.1 to 1:4
[6] = biological target: σ^A, recombinant, tag cleaved (strain LK2832) (M. smegmatis) (UniProt A0QW02); experiment: as above

stoichiometry N [1]	stoichiometry N [2]	stoichiometry N [3]	stoichiometry N [4]	stoichiometry N [5]	Kd [6] [nM]	stoichiometry N [6]	Substance
6	6						MoaB2 with C-terminal His-tag, for crystallography (strain LK2615) (natural protein)
		6	1 σ^A:MoaB2	6 and 3	< 1000	1 σ^A:MoaB2	MoaB2, recombinant, tag cleaved (strain LK2936) (from UniProt A0R3I5 1-178) (natural protein)
